According to US20150218244A1 (Hoffmann-La Roche, published 2015):
Positions count from the first letter of the chain named. Names and notes keep the numbering of the source.

B1: IL-10 (I87A)-his mutant cytokine (ligand)
chain: SPGQGTQSENSCTHFPGNLPNMLRDLRDAFSRVKTFFQMKDQLDNLLLKESLLEDFKGYLGCQALSEMIQFYLEEVMPQAENQDPDAKAHVNSLGENLKTLRLRLRRCHRFLPCENKSKAVEQVKNAFNKLQEKGIYKAMSEFDIFINYIEAYMTMKIRNVDHHHHHH
notes: The entry already carries I87A; Purified as the dimeric cytokine; also called hu IL-10 (I87A)
B2: IL-10 (R24A)-his mutant cytokine (ligand)
chain: B1 chain with R24A, A87I
notes: The entry already carries R24A; Purified as the dimeric cytokine; also called hu IL-10 (R24A)

Assays:
[1] = molecular target: T1, human IL-10R1 fused to an IgG Fc region, biotinylated (human, biotinylated (site not stated)); experiment: SPR, against IL-10 wild type
T1 construct: also called hu IL-10R1; IL-10R1-Fc
Description: (§1) The SPR assay set-up is depicted in FIG. 15. About 770 RU of the biotinylated human IL-10R1 fused to an IgG Fc region (see SEQ ID NO: 87) were captured on the neutravidin-derivatized chip matrix of an NLC chip along vertical channels at a concentration of 30 μg/ml and a flow rate of 30 μl/min for a contact time or 240 s. Binding to huIL10R1 was measured at 5 different analyte concentrations (50, 10, 2, 0.4, 0.08 nM) by injections in horizontal orientation at 50 μl/min, recording the association rate for 180 s, the dissociation rate for 600 s. Running buffer (PBST) was injected along the sixth channel to provide an “in-line” blank for referencing. Association rates (kₒₙ) and dissociation rates (koff) were calculated using a simple 1:1 Langmuir binding model (ProteOn Manager software version 2.1) by simultaneously fitting the association and dissociation sensorgrams. The equilibrium dissociation constant (KD) was calculated as the ratio koff/kₒₙ. As human IL-10R1 could not be regenerated without a loss of activity, the subsequent steps of ligand capture and analyte injection were performed channel per channel using a freshly immobilized sensorchip surface for every interaction.
A decreased affinity to the IL-10R1 may represent a distinct advantage when targeting IL-10 to inflamed tissues through fusion with an antibody. […]

[2] = molecular target: T1, human IL-10R1 fused to an IgG Fc …; experiment: SPR (ProteOn XPR36, 25 C), about 770 RU biotinylated IL-10R1-Fc on NLC chip, his-tagged cytokine as analyte
Description: as §1
A decreased affinity to the IL-10R1 may represent a distinct advantage when targeting IL-10 to inflamed tissues through fusion with an antibody.

T1 sequence (chain, as listed by the source limits assumed): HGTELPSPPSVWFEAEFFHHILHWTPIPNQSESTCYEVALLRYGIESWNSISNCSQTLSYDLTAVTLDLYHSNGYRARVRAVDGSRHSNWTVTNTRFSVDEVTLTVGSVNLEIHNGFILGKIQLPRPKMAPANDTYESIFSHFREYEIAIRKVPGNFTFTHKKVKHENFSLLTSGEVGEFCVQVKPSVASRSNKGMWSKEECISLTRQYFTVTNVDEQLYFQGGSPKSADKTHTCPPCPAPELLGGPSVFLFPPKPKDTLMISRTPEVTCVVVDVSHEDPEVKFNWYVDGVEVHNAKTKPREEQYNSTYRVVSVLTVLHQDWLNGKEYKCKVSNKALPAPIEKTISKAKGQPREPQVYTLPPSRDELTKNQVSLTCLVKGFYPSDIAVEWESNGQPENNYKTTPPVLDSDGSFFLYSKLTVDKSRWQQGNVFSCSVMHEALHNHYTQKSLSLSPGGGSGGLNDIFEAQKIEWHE

| Binder | fold reduction of affinity compared to IL-10 wild type [1] [fold] | Kd [2] [nM] | koff [2] [s⁻¹] | kon [2] [M⁻¹ s⁻¹] |
| --- | --- | --- | --- | --- |
| B1 | 10 | 0.476 | 0.000219 | 461000 |
| B2 | 2 | 0.0807 | 0.000184 | 2.28e+06 |
